{"source": "patent US12674174B2", "about": "“Protoporphyrinogen oxidase (PPO) resistance plant” (PLANTARC BIO LTD., priority 2022, dated 2026)", "molecules": {"B1": {"name": "SEQ ID NO: 1: PPO from Aspergillus sp. Protein. (protein, listed as Aspergillus sp.)", "chain": "MRLPCASSRVFRQVRAPLALLSRGQRHAVHTKQFDAAVIGGGITGLTAAYQLSRDPSCSKVTLYEKSPHLGGWLSSEQIPVPGGHVVFEYGPRTLRTSSPSCLPMMDLIMNLDLLDDVLICDKKSPAAQNRYIYYPDHLVRLPFPPTEGLLKTAWTLLMEPLFETFLYSAIFEKPKRAENTHILSRDESVADFVSRRFSPKISENLASAVMAGIFAGDVNRLSAEMAIGYVRELEKRYGSIVDGMMTQRASEMRAMPMDELLALESVAVPSHSDDRYWKSLRAVVSDASVLTLKNGLGQLTDAMAAQLRSSRNVEVVTGTEVTSLSQNPKTQDLTIGFGKNESKTHNRVIATHAPSSLARQIQNTKVGVVPSDTIRDLGQNNYAVTVMVVNLYYEDPDLVPVEGFGYLLPSSVPFEQNPERALGVIFGSQSSEGQDTAPGTKLTVMMGGHLWDGWSESDYPDPDKAIEMAQALLHRHLGIKTAPSVARARLLRDAIPQYTVGHLSRMKELSHSVRSDFHKRLTLAGAWYGTVGIGVVDCIRQGYLASSYGVGSKKLGPGNSRRPWTKHDFHNWELEGGIATSPVRLDNVHVTERQHY"}, "B2": {"name": "SEQ ID NO: 10: PPO from Fusarium sp. fused to cTP. Chimeric Protein; cloned from SEQ ID NO: 3 (protein)", "chain": "MELSLLRPTTQSLLPSFSKPNLRLNVYKPLRLRCSVAGGMSRRRAESTAVALLSSPAKSHLQPPLRRLDGIRSLSTSSALARRRPIVACNYTQSFNNGRTFVSQAKDANIAVLGGGLTGLTAAYYLAKKLPSTAKITLYESSDRLGGWIKTDRVPVDIEGKSGTLSFERGARSLSSLVGNTFRFDDLVLYDLALDLGLAINSPSQQPRYIYYPDHLVPTPPNISIFDMLREPLYLEIIGASLGLGINSLRKRTLPSKDYSVSEWLYAVSNSRKGIGNLASAMMHGIYGGDIHKLSARCVLDRLYWGWYLPNPGLSVRPMPVAEQALLETLGQDKQIQKMALEPRSALVDFGDKGMESLPQALSAALREQPNITIKTGEAVQDVVYNKANQQVHITSSNAKDNSKHNSKVYDKVISTLSAQDIALLAGNKLPSLSTAHSVSVMTVNIWFPQENLKPPGFGYLIPNSVAPELNPEHALGVFFDSDVQTRSKDEPAGTKLFVLMGGHYYDRPDVTPPTEEEAIIQARNLLERHLGIPRDAPAYATANFARECIPQHYVGHQDRLKAAHTELTRNFGGRLAVAGGSFTRIGAVASLRAGYDAATAAKKGLEATGLEYLNDIQQFSVVATSHIPVRHFK"}, "B3": {"name": "SEQ ID NO: 12: PPO from Fusarium sp. fused to cTP. Chimeric Protein; cloned from SEQ ID NO: 5 (protein)", "chain": "B2 chain with L249V, H627Q"}, "B4": {"name": "SEQ ID NO: 8: PPO from Aspergillus sp. fused to cTP. Chimeric Protein; cloned from SEQ ID NO: 1 (protein)", "chain": "MELSLLRPTTQSLLPSFSKPNLRLNVYKPLRLRCSVAGGMRLPCASSRVFRQVRAPLALLSRGQRHAVHTKQFDAAVIGGGITGLTAAYQLSRDPSCSKVTLYEKSPHLGGWLSSEQIPVPGGHVVFEYGPRTLRTSSPSCLPMMDLIMNLDLLDDVLICDKKSPAAQNRYIYYPDHLVRLPFPPTEGLLKTAWTLLMEPLFETFLYSAIFEKPKRAENTHILSRDESVADFVSRRFSPKISENLASAVMAGIFAGDVNRLSAEMAIGYVRELEKRYGSIVDGMMTQRASEMRAMPMDELLALESVAVPSHSDDRYWKSLRAVVSDASVLTLKNGLGQLTDAMAAQLRSSRNVEVVTGTEVTSLSQNPKTQDLTIGFGKNESKTHNRVIATHAPSSLARQIQNTKVGVVPSDTIRDLGQNNYAVTVMVVNLYYEDPDLVPVEGFGYLLPSSVPFEQNPERALGVIFGSQSSEGQDTAPGTKLTVMMGGHLWDGWSESDYPDPDKAIEMAQALLHRHLGIKTAPSVARARLLRDAIPQYTVGHLSRMKELSHSVRSDFHKRLTLAGAWYGTVGIGVVDCIRQGYLASSYGVGSKKLGPGNSRRPWTKHDFHNWELEGGIATSPVRLDNVHVTERQHY"}, "B5": {"name": "SEQ ID NO: 9: PPO from Aspergillus sp. fused to cTP. Chimeric Protein; cloned from SEQ ID NO: 2 (protein)", "chain": "B4 chain with V49A, S61H, P107S, S325T, K383R, M485I, L625F"}, "B6": {"name": "SEQ ID NO: 98: PPO from Hesseltinella sp. Protein. (protein, listed as Hesseltinella sp.)", "chain": "MPRSIVVLGGGISGLSAAYYLSRLVPQAHIRLIESNKRAGGFIKTQQVNDHLIFEAGPRTLRPHGTSGTVLLDMIKDLDLSPLLVNIPKSHPSAQHRYIEYHGQINQLPSGLADMLLHSPPIMDSVITAGMREPFLARASTTKDESLYNFMERRFNEHTALNLMGAMAHGIYAGDAKQLSVHSTFPILAACEQEYGSVVLGMLSGKLSVESPRERQLADACRAKDPEWFKQMQQSSVLGFLPGLGALPSRLTQFLSSQPNVSMQLGETVSRLDGQSSHQIEITTSQGQIYHADHIVSTLPSHALARISMPTTTSLPHLTHNPSADVALVNLAYEKCKVKPGLDGFGFLTPHADTMPPSQFPGLLGMIFDSNSLGVQDQDSNMVRFTAMIGGADWNLAFGSLHDNDAISSKALTMATAALSKYLEIHESPAHYHCRILRQCIPQYLVGHRQRMNELHAALQHSFGHTMSVTGASYLGVSVPDCIKHSRMLIEDLVDTGALGSKQAVITGLEKVTLPMYYKL"}, "B7": {"name": "SEQ ID NO: 102: Glycine max protoporphyrinogen oxidase 1, chloroplastic, XP_003536005.1 (protein)", "chain": "MVSVFNEILFPPNQTLLRPSLHSPTSFFTSPTRKFPRSRPNPILRCSIAEESTASPPKTRDSAPVDCVVVGGGVSGLCIAQALATKHANANVVVTEARDRVGGNITTMERDGYLWEEGPNSFQPSDPMLTMVVDSGLKDELVLGDPDAPRFVLWNRKLRPVPGKLTDLPFFDLMSIGGKIRAGFGALGIRPPPPGHEESVEEFVRRNLGDEVFERLIEPFCSGVYAGDPSKLSMKAAFGKVWKLEKNGGSIIGGTFKAIQERNGASKPPRDPRLPKPKGQTVGSFRKGLTMLPDAISARLGNKVKLSWKLSSISKLDSGEYSLTYETPEGVVSLQCKTVVLTIPSYVASTLLRPLSAAAADALSKFYYPPVAAVSISYPKEAIRSECLIDGELKGFGQLHPRSQGVETLGTIYSSSLFPNRAPPGRVLLLNYIGGATNTGILSKTDSELVETVDRDLRKILINPNAQDPFVVGVRLWPQAIPQFLVGHLDLLDVAKASIRNTGFEGLFLGGNYVSGVALGRCVEGAYEVAAEVNDFLTNRVYK", "modifications": "Glycine max"}, "B8": {"name": "SEQ ID NO: 101: 4IVO_B. Structure of human protoporphyrinogen IX oxidase(R59Q) [Homo sapiens] (protein, listed as Homo sapiens)", "chain": "MGRTVVVLGGGISGLAASYHLSRAPCPPKVVLVESSERLGGWIRSVRGPNGAIFELGPQGIRPAGALGARTLLLVSELGLDSEVLPVRGDHPAAQNRFLYVGGALHALPTGLRGLLRPSPPFSKPLFWAGLRELTKPRGKEPDETVHSFAQRRLGPEVASLAMDSLCRGVFAGNSRELSIRSCFPSLFQAEQTHRSILLGLLLGAGRTPQPDSALIRQALAERWSQWSLRGGLEMLPQALETHLTSRGVSVLRGQPVCGLSLQAEGRWKVSLRDSSLEADHVISAIPASVLSELLPAEAAPLARALSAITAVSVAVVNLQYQGAHLPVQGFGHLVPSSEDPGVLGIVYDSVAFPEQDGSPPGLRVTVMLGGSWLQTLEASGCVLSQELFQQRAQEAAATQLGLKEMPSHCLVHLHKNCIPQYTLGHWQKLESARQFLTAHRLPLTLAGASYEGVAVNDCIESGRQAAVSVLGTEPNS"}, "B9": {"name": "SEQ ID NO: 100: PPO from Rhizophagus sp. Protein. (protein, listed as Rhizophagus sp.)", "chain": "MSSPNNFVILGGGISGLSAAWYLSRYAPSTTKILVLEGSNRFGGWIKSKRVGQHKILFEQGPRTLRPNGIGGSVVLDMVNRLNLIPSLHAVTKDDDAAKDRFIYYPDKIVKLPGTSLLSSMKSVFTNNFLLKSIPSILFEPFIKPARNYHDETIHEFISRRFSKSISDILISALIHGIYAGDINKLSIRSTFTRLYNLEQKYGSVIKGLLMSNKEEFLSQQDKYLLKIINDENKDFLSIFKNVSLYSFKDGIEQLSSAIVNDLKNKENVQLKTNNQVTKLEFGENVKIFTNEAVYEADHVISALPSRALYNILPEKDVLPHLNYNPSVSVATINLAYAHPKILPVKGFGYLIPQSTPHNPYHVLGVVFDSNAMPLQDEPSRTYTKLTIMMGGHYFNSISEKDDFPKKEILLQQSIEILEKHLGIYSTPLYYLVDIQKNCIPQYYVGHYSRLKELHYAIKNHYANRLSVTGASYWGISINDCVLNSAKLVLNILSNSPNVVTGLEEVEIQNEHYL"}}, "note": "Positions count from the first letter of the chain named. In names and notes the source's numbering stands."}
{"test_system": "transgenic Arabidopsis plants", "format": "in vivo", "conditions": "Aurora 0.01% to 0.5%; compared to control plants", "from_the_text": "(§1) (SEQ ID NO: 8 was cloned from SEQ ID NO: 1, SEQ ID NO: 9 was cloned from SEQ ID NO: 2, SEQ ID NO: 10 was cloned from SEQ ID NO: 3, SEQ ID NO: 11 was cloned from SEQ ID NO: 4, SEQ ID NO: 12 was cloned from SEQ ID NO: 5, SEQ ID NO: 13 was cloned from SEQ ID NO: 6 SEQ ID NO: 14 was cloned from SEQ ID NO: 7). […] FIG. 1B summarizes the results of the three experiments described hereinabove."}
{"molecule": "B1", "level of resistance against Aurora (in words)": "very high levels of resistance"}
{"molecule": "B2", "level of resistance against Aurora (in words)": "not against Aurora"}
{"molecule": "B3", "level of resistance against Aurora (in words)": "not against Aurora"}
{"molecule": "B4", "level of resistance against Aurora (in words)": "very high levels of resistance"}
{"molecule": "B5", "level of resistance against Aurora (in words)": "very high levels of resistance"}
{"test_system": "transgenic Arabidopsis plants", "format": "in vivo", "conditions": "Strike 0.01% to 1%", "from_the_text": "as §1"}
{"molecule": "B2", "level of resistance against Strike (in words)": "high levels of resistance"}
{"molecule": "B3", "level of resistance against Strike (in words)": "high levels of resistance"}
{"test_system": "transgenic Arabidopsis plants", "format": "in vivo", "conditions": "Strike 0.01% to 1%; 5 orders of magnitude", "from_the_text": "as §1"}
{"molecule": "B1", "level of resistance to Strike, more tolerant to treatment as compared to control plants": "about 10^5"}
{"molecule": "B2", "level of resistance to Strike, more tolerant to treatment as compared to control plants": "about 10^5"}
{"molecule": "B3", "level of resistance to Strike, more tolerant to treatment as compared to control plants": "about 10^5"}
{"molecule": "B4", "level of resistance to Strike, more tolerant to treatment as compared to control plants": "about 10^5"}
{"molecule": "B5", "level of resistance to Strike, more tolerant to treatment as compared to control plants": "about 10^5"}
{"test_system": "Arabidopsis plants", "conditions": "Table 1; yes/no"}
{"molecule": "B6", "High concentration herbicide tolerance": "yes"}
{"molecule": "B7", "High concentration herbicide tolerance": "no"}
{"molecule": "B8", "High concentration herbicide tolerance": "no"}
{"test_system": "Arabidopsis plants", "conditions": "Table 2; yes/no; FIG. 6C legend: Star 1.25 kg/hectare"}
{"molecule": "B9", "Herbicide tolerance": "no"}
{"molecule": "B6", "Herbicide tolerance": "yes"}
{"molecule": "B8", "Herbicide tolerance": "no"}
